Residue numbers refer to the chain shown, from its start.
B1: composite human antibody variant H1 (antibody, V domains shown)
VH: EVQLVQSGAEVKKPGSSVKVSCKASGYTFTGYILSWVRQAPGQGLEWIGWVDPEYGSTDSAEKFKKRVTITADISTSTAYMELSSLRSEDTATYFCTRYYDGYYRRWFAYWGQGTLVTVSS
VL: DIQMTQSPSSLSASVGDRVTITCLASEGISNNLAWYQQKPGKAPKLLIYGAHSLHDGVPDRFSGSGSGTDYTLKISRVEAEDVGVYYCQQGYKYPITFGGGTKVEIK
notes: also called VH5VK3
B2: composite human antibody variant H8 (antibody, V domains shown)
VH: B1 VH with V68A
VL: B1 VL with Y36H
notes: also called VH4VK2
B3: composite human antibody variant H4 (antibody, V domains shown)
VH: B1 VH
VL: B1 VL with Y71F
notes: also called VH5VK4
B4: composite human antibody variant H19 (antibody, V domains shown)
VH: B1 VH with A9P, V20I, R38K, V68A, I70L, S77N, M81I, E82Q
VL: B1 VL with Y36H, K45Q, R77G, V78M, E79Q, A80P, V83E
notes: also called VH1VK1
B5: composite human antibody variant H13 (antibody, V domains shown)
VH: B1 VH with V20I, V68A, I70L, S77N, M81I
VL: B1 VL with Y71F
notes: also called VH2VK4
B6: composite human antibody variant H2 (antibody, V domains shown)
VH: B1 VH with V20I, V68A, I70L, M81I
VL: B1 VL with Y36H, K45Q, R77G, V78M, E79Q, A80P, V83E
notes: also called VH3VK1
B7: composite human antibody variant H15 (antibody, V domains shown)
VH: B1 VH with V20I, V68A, I70L, S77N, M81I
VL: B1 VL with Y36H
notes: also called VH2VK2
B8: composite human antibody variant H5 (antibody, V domains shown)
VH: B1 VH
VL: B1 VL with Y36H
notes: also called VH5VK2
B9: composite human antibody variant H6 (antibody, V domains shown)
VH: B1 VH
VL: B1 VL with Y36H, K45Q, R77G, V78M, E79Q, A80P, V83E
notes: also called VH5VK1
B10: composite human antibody variant H11 (antibody, V domains shown)
VH: B1 VH with V20I, V68A, I70L, M81I
VL: B1 VL
notes: also called VH3VK3
B11: composite human antibody variant H10 (antibody, V domains shown)
VH: B1 VH with V20I, V68A, I70L, M81I
VL: B1 VL with Y71F
notes: also called VH3VK4
B12: composite human antibody variant H3 (antibody, V domains shown)
VH: B1 VH with V68A
VL: B1 VL with Y71F
notes: also called VH4VK4

target: T1, human integrin β1 (human, UniProt P05556 21-798); experiment: competition FACS on Jurkat cells; competitor murine OS2966 (0.1875 µg/ml)
T1 construct: whole, on cells; the antibodies are described as anti-human integrin β1; also called CD29; ITGB1
Description: Binding of composite human antibody variants (from Table 2) was assessed in a competition FACS assay with the OS2966 murine chimeric antibody (murine OS2966 Fab sliced to human Fc). In brief, a dilution series (three-fold) of chimeric or humanized antibodies starting from 25.0 μg/ml was premixed with a constant concentration of murine OS2966 (0.1875 μg/ml) in FACS buffer (1% BSA in 1×PBS pH 7.4) before mixing with 3×10⁵ Jurkat cells. […] After incubating on ice for 45 min, cells were washed, resuspended in 300 μl FACS buffer and analyzed on a Beckton Dickinson FACScalibur™. The geometric mean fluorescence intensity was plotted against antibody concentration (FIGS. 20-24).

relative IC50 (IC50 of test antibody / IC50 of chimeric antibody)	Binder
0.88 ratio to chimeric antibody	B1
1.18 ratio to chimeric antibody	B2
3.26 ratio to chimeric antibody	B3
1.13 ratio to chimeric antibody	B4
2 ratio to chimeric antibody	B5
0.97 ratio to chimeric antibody	B6
1.32 ratio to chimeric antibody	B7
0.85 ratio to chimeric antibody	B8
1.24 ratio to chimeric antibody	B9
1.58 ratio to chimeric antibody	B10
2.76 ratio to chimeric antibody	B11
2.7 ratio to chimeric antibody	B12
